The target of the test is Human myeloma IgG1 carbamylated with 0.1 M KCNO for 3 h, heat-aggregated (human). The test is described as follows: ELISA. A general note: ELISA stands for enzyme-linked immunosorbent assay.

On to “C1q, the first component of the classical complement pathway (complex)”, for which the percent decrease in the deposition of C1q against native IgG1 was 60%.

These data come from article PMC4232992.
